From US11819553B2, “Glypican 3 antibodies and conjugates thereof” (Seagen Inc., priority 2018, dated 2023)

Molecular target: T1, hGPC3 (Homo sapiens, UniProt P51654)
T1 construct: endogenous in cells
Assay: Competition binding assay on GPC3-positive cells (flow cytometry, AlexaFluor-488 labeled mGPC3-1)
Details: Table 6; competition with labeled mGPC3-1 on GPC3-positive cells; read-out: hGPC3 Binding of hGPC3-1 Antibody Variants EC50
Protocol: One hundred thousand GPC3-positive cells were transferred to 96-well plates and incubated for 1 hour on ice with 3-5 nM AlexaFluor-488 labeled mGPC3-1 and increasing concentrations (from 10 pM to 2 uM) of unlabeled humanized or murine GPC3-1 mAb. Cells were centrifuged, washed 3 times with PBS, and resuspended in 125 μL of a PBS+2% FBS solution. Fluorescence was analyzed using a flow cytometer, and the percent of saturated fluorescent signal was used to determine percent labeled GPC3-1 mAb bound. The EC50 was extrapolated by fitting the data to a sigmoidal dose-response curve with variable slope.

T1 sequence (P51654 25-554): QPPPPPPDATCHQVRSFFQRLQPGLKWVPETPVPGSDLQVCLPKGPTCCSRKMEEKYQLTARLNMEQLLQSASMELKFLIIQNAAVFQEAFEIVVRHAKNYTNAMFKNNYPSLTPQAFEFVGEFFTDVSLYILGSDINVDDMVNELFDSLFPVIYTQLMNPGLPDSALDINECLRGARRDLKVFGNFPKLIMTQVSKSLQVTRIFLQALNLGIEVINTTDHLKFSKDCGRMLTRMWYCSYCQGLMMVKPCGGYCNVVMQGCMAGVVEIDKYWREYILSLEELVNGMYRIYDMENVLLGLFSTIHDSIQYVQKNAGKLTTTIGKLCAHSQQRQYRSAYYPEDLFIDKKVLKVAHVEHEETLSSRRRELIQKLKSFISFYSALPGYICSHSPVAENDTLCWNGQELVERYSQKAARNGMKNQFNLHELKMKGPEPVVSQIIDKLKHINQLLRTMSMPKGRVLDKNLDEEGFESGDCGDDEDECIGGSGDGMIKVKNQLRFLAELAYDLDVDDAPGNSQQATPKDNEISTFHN

B1: hGPC3-1 HALA: humanized GPC3-1 antibody with heavy chain variable region vHA and light chain variable region vLA (antibody, V domains shown)
VH: QVQLVQSGAEVKKPGASVKVSCKASGYTFTDYEMHWVRQAPGQGLEWIGGIDPETGGTAYNQKFKGRATLTADTSTSTAYMELRSLRSDDTAVYYCARYYSFAYWGQGTLVTVSS
VL: DVVMTQSPLSLPVTLGQPASISCRSSQSIVHSNGNTYLQWFQQRPGQSPRRLIYKVSNRFSGVPDRFSGSGSGTDFTLKISRVEAEDVGVYYCFQVSHVPYTFGQGTKLEIK
B1 was tested, and the EC50 was > 300 nM.
